Assay results taken from patent US20100286365A1.

Molecular target: GLP-1 receptor (GLP-1 cyclase assay of Example 11) (UniProt P32301)
Experiment: cell-based or functional assay

GLP-1 receptor (GLP-1 cyclase assay of Example 11), sequence (P32301 22-463 limits assumed): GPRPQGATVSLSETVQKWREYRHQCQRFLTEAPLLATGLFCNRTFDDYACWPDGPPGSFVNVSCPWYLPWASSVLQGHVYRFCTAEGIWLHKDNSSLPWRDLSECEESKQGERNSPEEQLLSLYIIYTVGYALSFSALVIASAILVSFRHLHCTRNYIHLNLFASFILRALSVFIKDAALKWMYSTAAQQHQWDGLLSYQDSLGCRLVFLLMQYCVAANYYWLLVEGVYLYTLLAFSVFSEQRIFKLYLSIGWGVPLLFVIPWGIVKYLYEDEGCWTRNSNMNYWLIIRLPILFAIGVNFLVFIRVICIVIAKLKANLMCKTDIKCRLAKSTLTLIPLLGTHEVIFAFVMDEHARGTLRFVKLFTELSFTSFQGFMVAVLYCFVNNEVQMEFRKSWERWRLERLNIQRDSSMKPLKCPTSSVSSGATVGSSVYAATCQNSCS

In the case of “[^14Leu,^28Gln]Exendin-4-(1-32)-fGLP-1-(33-37)-miniPEG-(S)-2,6-diamino-1-(pyrrolidin-2-cyano-1-yl)hexan-1-amide (peptide)”, the GLP Cyclase EC50 is reported as 0.017 nM.
